Biological target: the molecule itself
Assay: AUC

B1: PrP-like ectodomain of mouse ZIP5 (Mm_ZIP5, residues 20-207), secreted from mammalian cells, deglycosylated (domain or fragment)
chain: WVGGSVPNLGPAEQEQNHYLAQLFGLYGENGTLTAGGLARLLHSLGLGRVQGLRLGHHEPPTGRAAPTSGDNFTHRLQEPELSVDIWAGMPLGPSGWGDQEESKAPDLHGSGPSSLDLFQRLLLLDHSLADHLNEDCLNGSQLLVNFGLSPVAPLTPRQFALLSPALLYQIDSRVCIKTPAPAPPGDV
notes: also called ZIP5 ectodomain; PrP-like ZIP5 ectodomain
With B1 the “stoichiometry N” value was roughly 2.

From publication PMC3765157 (PLoS ONE, 2013)
